These results are taken from publication PMC12399193 (Acta Pharmaceutica Sinica. B, 2025).

Test [1] deals with T1, AVI-tagged DOK3(1–330 aa) (UniProt Q7L591 1-330).
T1 sequence (looked up): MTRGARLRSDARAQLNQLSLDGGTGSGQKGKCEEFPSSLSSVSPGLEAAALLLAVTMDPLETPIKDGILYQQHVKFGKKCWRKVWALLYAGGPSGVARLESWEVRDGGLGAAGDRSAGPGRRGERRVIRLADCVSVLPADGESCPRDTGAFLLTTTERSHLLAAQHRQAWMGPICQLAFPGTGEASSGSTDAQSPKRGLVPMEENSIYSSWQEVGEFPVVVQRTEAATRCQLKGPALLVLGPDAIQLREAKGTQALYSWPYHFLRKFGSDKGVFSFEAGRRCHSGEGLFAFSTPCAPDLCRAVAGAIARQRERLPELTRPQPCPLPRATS
Kind of test: BLI.

Test [2] addresses T1, AVI-tagged DOK3(1–330 aa). Kind of test: BLI. This is another data set of the same source. In general terms: In BLI a coated tip is dipped into the sample, and binding shifts an interference pattern.

B1: His-PRDX1 recombinant protein (WT, 1-199 aa) (natural protein, UniProt Q06830 1-199, looked up)
chain: MSSGNAKIGHPAPNFKATAVMPDGQFKDISLSDYKGKYVVFFFYPLDFTFVCPTEIIAFSDRAEEFKKLNCQVIGASVDSHFCHLAWVNTPKKQGGLGPMNIPLVSDPKRTIAQDYGVLKADEGISFRGLFIIDDKGILRQITVNDLPVGRSVDETLRLVQAFQFTDKHGEVCPAGWKPGSDTIKPDVQKSKEYFSKQK
With B1, the “KD with SAB” value in test [1] amounted to 1.77 µM. The same molecule registered an equilibrium dissociation constant (Kd) in test [2] of 15.5 µM.

By Kd is commonly meant a measure of binding affinity in units of concentration.
